In PMC5469476:

How the values were obtained:
[1] = biological target: human glucagon-like peptide-1 receptor (GLP1R) with C-terminal 1D4 epitope, purified in nanodiscs (GLP1R-ND) (human) (UniProt P43220); test: fluorescence polarisation
[2] = biological target: human glucagon-like peptide-1 receptor (GLP1R) with C-terminal 1D4 epitope, purified in nanodiscs (GLP1R-ND) (human) (UniProt P43220)
[3] = biological target: human glucagon-like peptide-1 receptor (GLP1R) with C-terminal 1D4 epitope, purified in nanodiscs (GLP1R-ND) (human) (UniProt P43220); test: fluorescence polarisation; fluorescence anisotropy; 50 nM FAM-labeled peptide with 0 to 400 nM freshly prepared GLP1R-ND (or empty-ND); 20 mM Tris-HCl pH 7.4, 150 mM NaCl, EDTA, 3 mM MgCl2; room temperature; single-site binding model; three independent receptor preparations

UniProt P43220, sequence (P43220 24-463): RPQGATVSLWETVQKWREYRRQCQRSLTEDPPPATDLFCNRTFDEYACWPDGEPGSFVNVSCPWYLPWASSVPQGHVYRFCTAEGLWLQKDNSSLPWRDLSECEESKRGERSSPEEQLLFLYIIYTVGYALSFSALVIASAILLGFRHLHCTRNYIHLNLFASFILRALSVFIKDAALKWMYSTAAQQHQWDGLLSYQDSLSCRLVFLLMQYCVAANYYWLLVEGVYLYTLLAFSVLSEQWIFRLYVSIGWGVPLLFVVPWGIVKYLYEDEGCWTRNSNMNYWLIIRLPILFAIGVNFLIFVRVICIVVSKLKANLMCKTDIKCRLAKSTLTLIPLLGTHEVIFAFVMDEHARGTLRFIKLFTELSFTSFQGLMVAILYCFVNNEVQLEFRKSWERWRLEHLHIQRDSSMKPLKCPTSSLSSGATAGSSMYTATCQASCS

FAM-labeled exendin-4 (L21K, 5(6)-carboxyfluorescein on the lysine) (peptide)
Kd [1]: 178 nM

FAM-labeled GLP-1-(7-37) (E21K, 5(6)-carboxyfluorescein on the lysine) (peptide)
EC50 of cell-based cAMP assay (receptor on cells, details in S1 Supporting Information) [2]: 1.18 nM
Kd [3]: 284 nM
